Publication doi:10.1101/351726

Legend:
[1] = molecular target: full-length MyD88 fused to GFP at the N-terminus (human) (UniProt Q99836); assay: single-molecule fluorescence brightness analysis
[2] = molecular target: full-length MyD88 fused to GFP at the N-terminus (human) (UniProt Q99836); assay: photon counting histogram

full-length MyD88 fused to GFP at the N-terminus (from UniProt Q99836 1-296) (natural protein)
Kd [1]: 120 nM | stoichiometry N [1]: > 80 GFP | stoichiometry N [2]: > 100 proteins
